The values that follow come from PMC3736351 (2014).

Experiment [1] addresses T1, GHRH receptor (spleen cells, 3- and 14-month old rats) (Rattus norvegicus, UniProt Q02644).
T1 chain: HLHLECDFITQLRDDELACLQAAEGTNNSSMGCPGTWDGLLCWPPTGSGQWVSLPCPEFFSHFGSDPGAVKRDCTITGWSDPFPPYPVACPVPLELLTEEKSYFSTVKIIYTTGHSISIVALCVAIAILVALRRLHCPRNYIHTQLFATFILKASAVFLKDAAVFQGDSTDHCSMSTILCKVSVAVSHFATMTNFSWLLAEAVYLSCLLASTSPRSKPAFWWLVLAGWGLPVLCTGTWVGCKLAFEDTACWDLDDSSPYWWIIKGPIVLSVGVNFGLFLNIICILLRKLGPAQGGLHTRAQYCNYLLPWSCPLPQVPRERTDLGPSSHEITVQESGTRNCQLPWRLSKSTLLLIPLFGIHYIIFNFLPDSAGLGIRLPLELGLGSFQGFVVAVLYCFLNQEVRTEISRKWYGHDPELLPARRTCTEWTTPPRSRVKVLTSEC
Nature of the experiment: homologous competitive radioligand binding.

Experiment [2] addresses T2, GHRH receptor (thymus cells, 3- and 14-month old rats) (Rattus norvegicus, UniProt Q02644).
T2 chain: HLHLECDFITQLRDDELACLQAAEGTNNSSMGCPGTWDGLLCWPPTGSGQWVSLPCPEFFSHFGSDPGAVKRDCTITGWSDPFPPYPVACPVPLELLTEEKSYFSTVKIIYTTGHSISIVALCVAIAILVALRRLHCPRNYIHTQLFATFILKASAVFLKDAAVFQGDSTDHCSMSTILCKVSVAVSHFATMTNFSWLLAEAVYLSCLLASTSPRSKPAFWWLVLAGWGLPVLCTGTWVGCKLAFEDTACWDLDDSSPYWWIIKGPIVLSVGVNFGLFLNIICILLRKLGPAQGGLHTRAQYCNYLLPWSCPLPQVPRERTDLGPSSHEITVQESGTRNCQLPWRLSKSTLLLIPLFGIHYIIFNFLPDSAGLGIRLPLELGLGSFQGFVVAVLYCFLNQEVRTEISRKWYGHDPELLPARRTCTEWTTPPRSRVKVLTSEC
Nature of the experiment: homologous competitive radioligand binding.

With MPLWVFFFVILTLSNSSHCSPPPPLTLRM [GHRH 1-29], the results for the Kd in experiment [1] and in experiment [2] were 2 nM and 1 nM, respectively.
